Data on one molecule can be found in patent publication US20240101710A1 (ALLOGENE THERAPEUTICS, published 2024).

The test has as its target T1, anti-BCMA antibody clone C29 Fab.
T1 construct: also called anti-BCMA clone C29 Fab
The test is described as follows: Biacore (SPR), 25 C, HEPES buffer pH 7.4. Here is the method:
E10 purified from the hybridoma cell line supernatant was analyzed by Biacore assay against the antigen anti-BCMA clone C29 Fab. The Biacore assay was run, for example, in 10 mM HEPES buffer, with 150 mM NaCl and 0.05% Tween20 at pH 7.4 and 1 mg/mL BSA at 25° C.

T1 sequence (VH, as listed by the source, chain 1 of 2): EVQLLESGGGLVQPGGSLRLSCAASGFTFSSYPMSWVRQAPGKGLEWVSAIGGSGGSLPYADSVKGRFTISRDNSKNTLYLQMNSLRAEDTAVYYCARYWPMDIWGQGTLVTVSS
T1 sequence (VL, as listed by the source, chain 2 of 2): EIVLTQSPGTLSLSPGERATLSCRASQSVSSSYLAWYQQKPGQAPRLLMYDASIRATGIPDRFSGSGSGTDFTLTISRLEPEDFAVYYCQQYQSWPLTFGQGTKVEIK

B1: anti-idiotypic antibody clone 87B12.E10 (E10), purified from hybridoma cell line (antibody, V domains shown)
VH: QVQLQQSGPGLVQPSQSLSIPCTVSGFSLTSYDVHWVRQSPGKGLEWLGVIWSGGSTGYNAIFRSRLSINKDNSKSQVFFKMTSLQPDDTAIYYCANFSPWYLPSYWDQGTLVTVSA
VL: QIVLTQSPAIMSASPGEKVTITCSASSNVSYMHWFQQKPGTSPKLWIYSTSNLASGVPARFSGSGSGTSYSLTISRMEAEDAATYYCQQRSSYPLTFGAGTKLELK
notes: Mouse (Balb/c) hybridoma antibody; also called E10 purified Ab from hybridoma cell line
B1 came in with an equilibrium dissociation constant (Kd) of 0.11 nM, a koff of 0.000157 s⁻¹, a kon of 1.48e+06 M⁻¹ s⁻¹ and a t1/2 of 1.23 h.
